Here are results for two molecules from publication PMC9732523.

For this series, the target named is hnRNP K (UniProt P61978 1-463). The series is described as follows: fluorescence anisotropy. (In general: Fluorescence polarisation rises when a labelled molecule tumbles more slowly, as on binding a larger partner.)

For UCUCUUCCCUCCCUCCUUCCCUCCCCCCAU (ssRNA) [hRUNX1 int3-4], the Kd is 13.5 nM.
With UCCUCCUCCCUUCCCCUCCCGGUCCCUA (ssRNA) [mRunx1 int3-4] the figure was 14.5 nM.

Usually Kd stands for the free concentration of one partner at which half of the binding sites on the other are occupied at equilibrium, for simple one-to-one binding. The low end stands for tighter binding, the high end for weaker binding.
